Data: the supplement of paper PMC10065799, “High-throughput profiling of sequence recognition by tyrosine kinases and SH2 domains using bacterial peptide display” (eLife, 2023)

Legend:
[1] = tested on: AncSZ; test: phosphorylation enrichment, bacterial display (enrichment ratio); higher = better substrate or ligand; peptides without Tyr show the background
[2] = target: EPHB1 (UniProt P54762); test: as above
[3] = target: EPHB2 (UniProt P29323); test: as above
[4] = target: FGFR1 (UniProt P11362); test: as above
[5] = target: FGFR3 (UniProt P22607); test: as above
[6] = tested on: Fer (mouse); test: as above
[7] = target: Fes (UniProt P07332); test: as above
[8] = target: Fyn (UniProt P06241); test: as above
[9] = target: Hck (UniProt P08631); test: as above
[10] = target: Jak2 (UniProt O60674); test: as above
[11] = target: MERTK (UniProt Q12866); test: as above
[12] = tested on: c-Abl (mouse); test: as above
[13] = tested on: c-Src; test: as above
[14] = target: Grb2 SH2 (UniProt P62993); test: SH2 binding enrichment of the phosphorylated peptide, bacterial display (enrichment ratio); higher = better substrate or ligand; peptides without Tyr show the background
[15] = target: SHP2-C SH2; test: as above
[16] = target: c-Src SH2; test: as above
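Throughout, for SH2 binding enrichment of the phosphorylated peptide, bacterial display: peptide library displayed on the E. coli surface as eCPX fusions, selected cells deep-sequenced, score is each peptide's frequency after selection divided by its frequency in the input.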
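Throughout, for phosphorylation enrichment, bacterial display: 11-residue human phosphosite peptides and single-mutation variants displayed on the E. coli surface, counted by deep sequencing, each peptide's frequency after selection divided by its frequency in the unselected input library; frequency after pTyr selection over input frequency; kinase dosed for 20-30% of maximal phosphorylation in three min.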

Sequence of MERTK (Q12866 whole entry, looked up): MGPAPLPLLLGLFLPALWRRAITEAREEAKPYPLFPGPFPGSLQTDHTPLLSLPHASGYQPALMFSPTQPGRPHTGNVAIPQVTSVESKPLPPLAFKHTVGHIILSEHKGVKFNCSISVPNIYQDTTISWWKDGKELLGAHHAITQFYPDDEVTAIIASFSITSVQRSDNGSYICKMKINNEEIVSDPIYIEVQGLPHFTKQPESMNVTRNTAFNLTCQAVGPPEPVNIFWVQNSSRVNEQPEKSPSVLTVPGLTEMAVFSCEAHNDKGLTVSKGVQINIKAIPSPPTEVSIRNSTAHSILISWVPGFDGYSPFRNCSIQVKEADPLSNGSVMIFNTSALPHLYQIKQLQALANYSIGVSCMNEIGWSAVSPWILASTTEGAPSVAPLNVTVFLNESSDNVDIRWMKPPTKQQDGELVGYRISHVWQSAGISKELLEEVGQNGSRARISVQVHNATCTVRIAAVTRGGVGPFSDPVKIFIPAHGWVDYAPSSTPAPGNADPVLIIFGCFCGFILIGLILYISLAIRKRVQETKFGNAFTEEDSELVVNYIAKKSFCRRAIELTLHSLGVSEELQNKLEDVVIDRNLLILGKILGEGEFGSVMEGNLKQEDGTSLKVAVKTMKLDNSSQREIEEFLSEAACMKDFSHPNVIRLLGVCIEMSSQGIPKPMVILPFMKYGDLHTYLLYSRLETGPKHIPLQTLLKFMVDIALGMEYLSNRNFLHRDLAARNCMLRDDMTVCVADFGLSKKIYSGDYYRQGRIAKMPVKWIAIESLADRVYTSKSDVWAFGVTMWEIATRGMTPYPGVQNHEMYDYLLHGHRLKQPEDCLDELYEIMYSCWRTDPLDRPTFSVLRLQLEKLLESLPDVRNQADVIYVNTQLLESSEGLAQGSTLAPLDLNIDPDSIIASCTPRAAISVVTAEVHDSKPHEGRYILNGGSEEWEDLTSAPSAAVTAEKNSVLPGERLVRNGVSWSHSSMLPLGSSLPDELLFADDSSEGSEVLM
Sequence of FGFR1 (P11362 whole entry, looked up): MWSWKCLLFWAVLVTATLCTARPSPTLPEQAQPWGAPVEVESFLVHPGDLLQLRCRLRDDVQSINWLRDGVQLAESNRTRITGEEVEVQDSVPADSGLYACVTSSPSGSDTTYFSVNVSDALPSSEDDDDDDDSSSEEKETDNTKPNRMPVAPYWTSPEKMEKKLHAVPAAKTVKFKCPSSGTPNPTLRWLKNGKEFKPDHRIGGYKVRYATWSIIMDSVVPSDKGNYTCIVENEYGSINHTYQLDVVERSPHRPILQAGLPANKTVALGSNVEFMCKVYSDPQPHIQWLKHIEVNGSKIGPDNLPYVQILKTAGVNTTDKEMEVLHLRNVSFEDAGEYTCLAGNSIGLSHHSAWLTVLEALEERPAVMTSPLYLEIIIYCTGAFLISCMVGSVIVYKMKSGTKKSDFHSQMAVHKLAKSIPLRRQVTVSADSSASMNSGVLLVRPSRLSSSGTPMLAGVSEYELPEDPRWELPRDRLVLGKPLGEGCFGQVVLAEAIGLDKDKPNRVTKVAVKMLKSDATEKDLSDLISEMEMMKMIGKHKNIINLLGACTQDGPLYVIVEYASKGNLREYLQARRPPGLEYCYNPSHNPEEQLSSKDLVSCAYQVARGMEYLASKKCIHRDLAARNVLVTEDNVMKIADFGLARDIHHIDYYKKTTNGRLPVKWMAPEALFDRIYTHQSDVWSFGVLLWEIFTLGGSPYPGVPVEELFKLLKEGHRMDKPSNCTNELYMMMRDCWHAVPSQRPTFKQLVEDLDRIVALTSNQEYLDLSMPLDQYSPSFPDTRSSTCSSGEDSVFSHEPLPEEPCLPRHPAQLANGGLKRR
Sequence of EPHB2 (P29323 whole entry, looked up): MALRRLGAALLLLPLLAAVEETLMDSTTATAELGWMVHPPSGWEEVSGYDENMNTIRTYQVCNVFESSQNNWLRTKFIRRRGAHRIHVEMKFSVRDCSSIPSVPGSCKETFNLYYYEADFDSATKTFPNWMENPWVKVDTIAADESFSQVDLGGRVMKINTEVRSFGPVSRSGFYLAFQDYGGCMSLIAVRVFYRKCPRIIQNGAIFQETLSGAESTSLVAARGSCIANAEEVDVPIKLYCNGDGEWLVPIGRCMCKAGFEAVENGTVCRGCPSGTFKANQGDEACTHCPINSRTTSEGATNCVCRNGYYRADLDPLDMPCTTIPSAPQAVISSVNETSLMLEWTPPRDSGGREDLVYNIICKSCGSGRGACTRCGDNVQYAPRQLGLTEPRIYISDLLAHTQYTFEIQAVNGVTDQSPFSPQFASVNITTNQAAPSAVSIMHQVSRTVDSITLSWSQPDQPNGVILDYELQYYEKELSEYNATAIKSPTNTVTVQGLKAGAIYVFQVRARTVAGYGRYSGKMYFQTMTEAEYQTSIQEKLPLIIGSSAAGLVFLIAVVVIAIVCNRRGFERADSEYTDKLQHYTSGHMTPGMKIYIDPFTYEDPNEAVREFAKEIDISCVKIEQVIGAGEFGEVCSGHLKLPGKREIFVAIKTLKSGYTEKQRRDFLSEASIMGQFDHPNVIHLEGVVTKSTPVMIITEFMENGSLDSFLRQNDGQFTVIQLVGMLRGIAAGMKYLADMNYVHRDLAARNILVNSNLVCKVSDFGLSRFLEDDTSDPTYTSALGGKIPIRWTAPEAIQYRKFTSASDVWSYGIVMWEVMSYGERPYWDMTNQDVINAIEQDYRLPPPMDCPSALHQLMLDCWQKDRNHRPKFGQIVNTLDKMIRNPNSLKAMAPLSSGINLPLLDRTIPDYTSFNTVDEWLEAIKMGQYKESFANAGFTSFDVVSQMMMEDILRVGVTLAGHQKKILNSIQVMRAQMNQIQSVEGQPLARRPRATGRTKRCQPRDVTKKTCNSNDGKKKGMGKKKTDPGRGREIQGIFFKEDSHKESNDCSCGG
Sequence of EPHB1 (P54762 whole entry, looked up): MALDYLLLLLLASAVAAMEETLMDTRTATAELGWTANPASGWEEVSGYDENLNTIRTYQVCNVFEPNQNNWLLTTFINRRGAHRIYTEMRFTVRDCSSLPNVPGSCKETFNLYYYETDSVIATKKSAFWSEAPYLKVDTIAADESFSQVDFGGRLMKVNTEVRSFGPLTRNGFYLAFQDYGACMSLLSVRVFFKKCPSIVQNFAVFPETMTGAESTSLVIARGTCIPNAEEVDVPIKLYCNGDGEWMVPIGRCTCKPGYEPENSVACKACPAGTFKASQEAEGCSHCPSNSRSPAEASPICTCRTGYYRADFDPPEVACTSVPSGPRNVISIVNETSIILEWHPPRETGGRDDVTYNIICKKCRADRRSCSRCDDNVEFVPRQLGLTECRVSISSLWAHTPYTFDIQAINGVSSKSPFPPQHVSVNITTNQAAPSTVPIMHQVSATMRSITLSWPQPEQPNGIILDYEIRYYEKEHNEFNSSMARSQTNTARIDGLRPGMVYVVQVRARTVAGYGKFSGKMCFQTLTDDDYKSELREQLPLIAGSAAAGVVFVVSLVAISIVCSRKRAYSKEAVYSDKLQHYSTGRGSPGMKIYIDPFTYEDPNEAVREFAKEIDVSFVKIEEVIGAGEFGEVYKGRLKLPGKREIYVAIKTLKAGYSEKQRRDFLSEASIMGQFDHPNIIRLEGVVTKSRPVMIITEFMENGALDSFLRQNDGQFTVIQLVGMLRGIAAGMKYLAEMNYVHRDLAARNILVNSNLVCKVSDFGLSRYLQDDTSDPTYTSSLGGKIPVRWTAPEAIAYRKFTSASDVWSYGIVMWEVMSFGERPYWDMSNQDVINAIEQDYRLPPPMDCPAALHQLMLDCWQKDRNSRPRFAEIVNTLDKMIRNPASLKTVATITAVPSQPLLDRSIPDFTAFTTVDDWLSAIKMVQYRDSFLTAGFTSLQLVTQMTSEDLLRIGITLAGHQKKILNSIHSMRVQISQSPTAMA
Sequence of Fes (P07332 whole entry, looked up): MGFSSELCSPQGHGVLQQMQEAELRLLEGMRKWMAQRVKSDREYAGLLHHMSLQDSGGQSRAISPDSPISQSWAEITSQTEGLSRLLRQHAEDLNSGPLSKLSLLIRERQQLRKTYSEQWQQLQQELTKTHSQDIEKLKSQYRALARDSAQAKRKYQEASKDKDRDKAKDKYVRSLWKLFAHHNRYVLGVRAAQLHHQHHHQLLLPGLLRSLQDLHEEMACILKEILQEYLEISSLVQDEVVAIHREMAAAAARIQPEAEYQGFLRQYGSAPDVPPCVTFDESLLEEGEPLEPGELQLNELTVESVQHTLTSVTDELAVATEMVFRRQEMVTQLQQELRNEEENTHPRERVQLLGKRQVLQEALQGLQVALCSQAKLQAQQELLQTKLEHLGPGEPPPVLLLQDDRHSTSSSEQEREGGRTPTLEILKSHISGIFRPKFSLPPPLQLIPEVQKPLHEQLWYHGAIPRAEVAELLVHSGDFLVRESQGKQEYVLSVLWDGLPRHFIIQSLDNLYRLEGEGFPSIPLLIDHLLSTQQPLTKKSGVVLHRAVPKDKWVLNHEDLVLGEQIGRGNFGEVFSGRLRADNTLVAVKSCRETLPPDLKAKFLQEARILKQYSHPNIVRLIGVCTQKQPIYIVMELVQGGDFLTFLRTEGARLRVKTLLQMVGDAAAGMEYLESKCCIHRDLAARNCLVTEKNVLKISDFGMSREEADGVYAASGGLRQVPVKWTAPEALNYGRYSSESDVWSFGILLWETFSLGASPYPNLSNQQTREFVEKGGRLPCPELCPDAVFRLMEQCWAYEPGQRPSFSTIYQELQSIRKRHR
Sequence of Grb2 SH2 (P62993 whole entry, looked up): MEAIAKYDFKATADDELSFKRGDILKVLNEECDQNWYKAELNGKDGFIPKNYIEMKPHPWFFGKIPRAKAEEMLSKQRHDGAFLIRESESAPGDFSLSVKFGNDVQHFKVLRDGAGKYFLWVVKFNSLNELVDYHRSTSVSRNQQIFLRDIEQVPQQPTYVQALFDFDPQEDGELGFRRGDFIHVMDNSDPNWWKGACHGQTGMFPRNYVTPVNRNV

Sequence	phosphorylation enrichment [1]	phosphorylation enrichment [2]	phosphorylation enrichment [3]	phosphorylation enrichment [4]	phosphorylation enrichment [5]	phosphorylation enrichment [6]	phosphorylation enrichment [7]	phosphorylation enrichment [8]	phosphorylation enrichment [9]	phosphorylation enrichment [10]	phosphorylation enrichment [11]	phosphorylation enrichment [12]	phosphorylation enrichment [13]	SH2 binding enrichment [14]	SH2 binding enrichment [15]	SH2 binding enrichment [16]
RLKAKYAAATG [GLI3_Y933]	0.64	0.421	0.526	0.36	0.395	0.486	0.611	0.379	0.464	0.692	0.414	0.601	0.529	0.811	0.698	0.511
RLKAKYPAATG [GLI3_Y933_A934P]	0.713	0.708	0.697	0.716	0.941	0.604	0.969	0.755	0.787	0.905	0.639	1.14	0.818	1.48	1.25	1.48
RLLRGYNQSAY [HLA-C_Y137_D138N]	0.44	0.538	0.454	0.386	0.499	0.321	0.412	0.41	0.507	0.307	0.275	0.36	0.267	1.11	1.09	0.825
RLNCIYFKDQT [RS1_Y165_W163C_YF]	1.16	0.827	0.732	0.683	0.599	0.56	1.32	0.59	0.77	1.3	0.871	1.05	1.08	1.05	0.818	0.711
RLPINYTTRRI [LAMA2_Y2894_G2889R]	0.873	0.433	0.519	0.743	0.839	0.289	0.602	0.35	0.534	0.547	0.663	0.638	0.626	0.76	0.636	0.471
RMLREYQELMS [KRT74_Y425]	0.821	0.66	0.432	0.95	0.555	0.357	0.837	0.699	0.532	0.611	0.527	0.663	0.57	1.13	0.962	5.24
RMSQRYGDVLQ [CYP1A2_Y72]	1.03	0.399	0.41	0.89	0.769	0.644	0.967	0.431	0.336	0.744	0.481	0.747	0.595	0.788	0.518	0.294
RMSQRYRDVLQ [CYP1A2_Y72_G73R]	1.11	0.422	0.719	0.484	0.549	0.396	1.08	0.593	0.66	0.905	0.522	0.769	0.745	0.719	0.548	0.495
RNESFYDTFST [EFCAB3_Y372]	1.07	17.3	21	0.852	0.915	13.2	1.46	16.4	14.3	0.891	15.6	2.23	10.5	0.826	0.913	0.542
RNNIEYVRDIG [MUSK_Y577]	0.676	0.437	0.404	0.413	0.58	0.426	0.693	0.369	0.395	0.436	0.3	0.602	0.416	1.21	0.725	0.634
RPFRPYIIRGM [LRP5_Y1531_YF]	1.14	0.633	0.709	1.03	0.88	0.456	1.2	0.611	0.655	0.748	0.781	0.532	0.647	0.735	0.625	0.482
RPGGRYPVARR [SHANK3_Y1569_S1566G]	0.734	0.468	0.563	0.648	0.599	0.667	0.899	0.647	0.626	0.478	0.775	0.657	0.664	0.749	0.433	0.492
RQAQAYRGQRV [TSHR_Y706]	1.82	0.564	0.99	1.23	1	0.909	1.51	1	0.839	1.62	0.831	1.25	1.36	0.691	0.665	0.385
RQQQDYWLMDV [ANPEP_Y600_I603M]	1.8	7.32	3.72	18	13.1	1.03	1.01	0.537	0.487	1.26	3.29	0.587	0.509	0.896	0.815	0.634
RQSTLYSFFPK [MSH6_Y8]	1.34	18.4	18.9	6.8	5.16	4.37	1.77	5.84	14.6	0.685	22.1	5.61	7.83	1.47	1.19	1.03
RRETPYGGGGG [FUS_Y526_R524T]	0.769	0.568	0.62	0.957	1.07	0.438	0.68	0.718	0.604	0.551	0.721	0.487	0.628	0.685	0.54	0.477
RRIYSYRGHLW [VHL_Y112_H110Y]	1.45	1.17	0.659	1.2	0.725	1.02	1.68	0.986	0.667	0.691	1.24	0.776	1.26	0.774	0.465	0.501

Sequence	phosphorylation enrichment [1]	phosphorylation enrichment [2]	phosphorylation enrichment [3]	phosphorylation enrichment [4]	phosphorylation enrichment [5]	phosphorylation enrichment [6]	phosphorylation enrichment [7]	phosphorylation enrichment [8]	phosphorylation enrichment [9]	phosphorylation enrichment [10]	phosphorylation enrichment [11]	phosphorylation enrichment [12]	phosphorylation enrichment [13]	SH2 binding enrichment [14]	SH2 binding enrichment [15]	SH2 binding enrichment [16]
RRKRAYVEIEF [MAK16_Y282_Q277R_YF]	0.665	0.582	0.658	0.563	0.871	0.551	0.828	0.58	0.505	0.593	0.759	0.58	0.542	0.504	0.459	0.434
RRVLVYGGRGA [QDPR_Y16]	1.1	0.488	0.822	0.357	0.702	0.716	0.681	0.563	0.597	0.361	0.549	0.575	0.674	0.608	0.683	0.407
RRYLYYYSYLL [PTEN_Y177_V175L]	1.13	1.13	0.91	1.74	1.93	1.24	1.75	0.816	1.17	3.29	5.8	1.02	1.68	0.973	0.712	0.686
RSHLPYDVTPE [IQGAP3_Y1098]	1.82	0.572	0.742	0.752	0.747	0.474	1.45	0.848	0.695	2.28	1	1.39	1.27	0.827	0.974	0.588
RWGQKYMTAVV [CYBA_Y72]	0.731	0.494	0.783	0.654	0.884	0.568	0.665	0.488	0.609	0.409	0.452	0.328	0.312	1.57	0.698	0.948
SAPPSYEETVA [LITAF_Y23]	1.1	0.6	0.636	0.65	0.672	0.531	1.09	0.645	0.569	0.828	0.414	0.727	0.398	0.761	0.975	0.909
SARFPYLMAEK [LDHB_Y173_R172P]	0.604	0.373	0.416	0.387	0.455	0.389	0.687	0.315	0.422	0.504	0.325	0.361	0.483	0.912	0.523	0.579
SDGHEYIFVDP [PDGFRB_Y579_YF]	2.08	0.478	0.486	1.75	1.37	0.447	0.811	0.509	0.43	1	0.425	0.573	0.512	0.769	0.544	0.769
SDVDLYQVRIA [PSMD9_Y70_T74I]	0.92	0.594	0.497	0.598	0.583	0.756	0.892	1.86	4.07	1.04	0.463	0.579	2.13	0.789	0.793	0.431
SEKISYVFMKR [SSX7_Y48_L43S_YF]	1.25	0.599	0.597	0.52	0.75	0.458	1.32	0.436	0.46	1.05	0.378	0.822	0.412	0.681	0.906	0.386
SEKIVYGHVDD [ACO2_Y71_L74V]	0.715	0.41	0.469	0.471	0.529	0.466	0.805	0.515	0.479	0.738	0.383	0.677	0.649	0.903	1.59	0.556
SENFTYIWWLN [PSG4_Y271_K267E_YF]	1.47	0.73	0.771	0.543	1.03	0.674	1.59	0.513	0.559	1.46	0.404	0.96	0.355	0.715	0.563	0.439
SEPDLYCDPRG [PKP1_Y160]	2.48	4.34	3.01	1.94	1.45	2.37	1.15	1.95	5.26	1.23	1.46	1.31	2.17	1.03	0.93	0.563
SETDDYAEIIV [PTK2_Y397_D402V]	1.4	0.83	1.04	1.16	1.2	0.82	1.17	0.519	0.655	1.09	0.524	0.677	0.61	0.975	0.761	0.795
SGDITYGQFAQ [PLCG1_Y210]	0.596	0.47	0.4	0.426	0.422	0.387	0.632	8.52	4.63	0.796	0.362	0.495	5.78	0.716	0.557	0.53
SGPRRYTIAAL [TTR_Y125]	0.605	0.444	0.53	0.456	0.419	0.383	0.579	0.482	0.375	0.639	0.428	0.637	0.498	0.867	0.572	0.533
